According to PMC12319226 (Frontiers in Bioinformatics, 2025):
“And” between values parts separate entries of the source, which are not always exact repeats. Identical values can stand only once.

T1: fHbp m001927 (Neisseria meningitidis; fHbp …, chimera)
T1 chain: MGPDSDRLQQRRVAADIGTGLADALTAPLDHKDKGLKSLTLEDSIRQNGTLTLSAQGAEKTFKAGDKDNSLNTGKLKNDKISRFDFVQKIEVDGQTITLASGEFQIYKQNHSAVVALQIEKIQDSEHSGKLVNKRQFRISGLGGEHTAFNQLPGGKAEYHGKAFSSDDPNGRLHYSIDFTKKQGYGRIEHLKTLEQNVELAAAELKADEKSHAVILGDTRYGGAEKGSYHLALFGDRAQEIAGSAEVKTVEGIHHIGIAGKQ

T2: fHbp m002420 (Neisseria meningitidis, designed fHbp …, chimera)
T2 chain: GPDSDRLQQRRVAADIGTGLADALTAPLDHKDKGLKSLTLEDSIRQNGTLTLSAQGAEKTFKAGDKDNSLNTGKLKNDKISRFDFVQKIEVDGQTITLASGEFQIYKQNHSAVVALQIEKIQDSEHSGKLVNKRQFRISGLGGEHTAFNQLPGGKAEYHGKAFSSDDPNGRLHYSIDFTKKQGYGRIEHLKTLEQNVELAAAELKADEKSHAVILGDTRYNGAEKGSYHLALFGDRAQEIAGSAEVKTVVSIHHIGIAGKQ

T3: fHbp m002335 (Neisseria meningitidis; fHbp …, chimera)
T3 chain: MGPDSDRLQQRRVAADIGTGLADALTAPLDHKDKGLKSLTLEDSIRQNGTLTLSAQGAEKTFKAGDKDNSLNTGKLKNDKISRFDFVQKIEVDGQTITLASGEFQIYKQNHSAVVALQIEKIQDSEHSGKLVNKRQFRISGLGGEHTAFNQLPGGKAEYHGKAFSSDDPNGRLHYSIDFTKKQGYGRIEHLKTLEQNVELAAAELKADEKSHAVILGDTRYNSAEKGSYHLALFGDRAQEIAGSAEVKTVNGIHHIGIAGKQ

T4: fHbp m002413 (Neisseria meningitidis, designed fHbp …, chimera)
T4 chain: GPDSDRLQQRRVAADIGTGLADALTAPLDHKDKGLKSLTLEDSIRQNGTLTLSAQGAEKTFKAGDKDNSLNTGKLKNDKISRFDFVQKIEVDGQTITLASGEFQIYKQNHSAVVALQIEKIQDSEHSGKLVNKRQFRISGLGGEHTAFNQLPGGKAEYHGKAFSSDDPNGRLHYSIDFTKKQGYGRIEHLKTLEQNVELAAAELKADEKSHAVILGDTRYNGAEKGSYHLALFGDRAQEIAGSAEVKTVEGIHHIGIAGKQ

T5: fHbp m001691 (Neisseria meningitidis; fHbp …, point mutant)
T5 chain: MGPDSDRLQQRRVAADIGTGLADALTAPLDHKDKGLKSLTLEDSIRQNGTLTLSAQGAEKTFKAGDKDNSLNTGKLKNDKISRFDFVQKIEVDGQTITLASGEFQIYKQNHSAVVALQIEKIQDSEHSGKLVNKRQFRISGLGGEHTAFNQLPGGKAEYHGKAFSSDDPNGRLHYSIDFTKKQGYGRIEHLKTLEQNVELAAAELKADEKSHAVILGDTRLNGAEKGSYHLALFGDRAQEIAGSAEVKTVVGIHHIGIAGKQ

T6: fHbp m002415 (Neisseria meningitidis, designed fHbp …, chimera)
T6 chain: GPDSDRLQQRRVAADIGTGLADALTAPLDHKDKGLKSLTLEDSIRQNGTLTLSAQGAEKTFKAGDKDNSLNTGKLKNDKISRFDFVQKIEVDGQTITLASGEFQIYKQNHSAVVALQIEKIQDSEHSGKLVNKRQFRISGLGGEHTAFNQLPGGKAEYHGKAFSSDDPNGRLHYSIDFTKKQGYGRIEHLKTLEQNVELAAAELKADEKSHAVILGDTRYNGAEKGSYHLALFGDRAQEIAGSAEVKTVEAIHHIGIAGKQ

T7: fHbp m002252 (Neisseria meningitidis; fHbp …, chimera)
T7 chain: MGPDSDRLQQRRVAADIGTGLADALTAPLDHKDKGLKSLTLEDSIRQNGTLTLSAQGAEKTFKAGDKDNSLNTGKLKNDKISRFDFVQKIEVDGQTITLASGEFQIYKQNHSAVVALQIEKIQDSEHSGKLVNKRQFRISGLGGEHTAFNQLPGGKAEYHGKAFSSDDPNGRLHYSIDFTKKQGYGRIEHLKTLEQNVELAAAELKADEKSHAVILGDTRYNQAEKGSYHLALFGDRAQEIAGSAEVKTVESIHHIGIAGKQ

T8: fHbp m002332 (Neisseria meningitidis; fHbp …, chimera)
T8 chain: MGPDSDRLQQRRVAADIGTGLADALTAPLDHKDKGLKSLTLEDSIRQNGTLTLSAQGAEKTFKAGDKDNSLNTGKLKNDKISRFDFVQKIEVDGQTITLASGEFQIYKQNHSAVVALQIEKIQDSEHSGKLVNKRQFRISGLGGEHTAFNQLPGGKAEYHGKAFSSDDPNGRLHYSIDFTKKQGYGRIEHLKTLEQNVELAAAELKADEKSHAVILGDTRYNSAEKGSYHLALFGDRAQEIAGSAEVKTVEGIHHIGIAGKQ

T9: fHbp m002416 (Neisseria meningitidis, designed fHbp …, chimera)
T9 construct: also called fHbp 2,416; Round 2 best mutant
T9 chain: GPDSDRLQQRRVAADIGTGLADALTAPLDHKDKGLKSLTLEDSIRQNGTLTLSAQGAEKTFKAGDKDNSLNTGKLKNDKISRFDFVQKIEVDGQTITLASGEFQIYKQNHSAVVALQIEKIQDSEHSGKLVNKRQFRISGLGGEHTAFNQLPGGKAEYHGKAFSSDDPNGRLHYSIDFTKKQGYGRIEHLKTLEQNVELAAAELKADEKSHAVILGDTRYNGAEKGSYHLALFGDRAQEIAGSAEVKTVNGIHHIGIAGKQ


Tests used:
Assay in all cases: BLI
Conditions in all cases: both partners purified
fHbp m001927 = target: T1, fHbp m001927
fHbp m002420 = target: T2, fHbp m002420
fHbp m002335 = target: T3, fHbp m002335
fHbp m002413 = target: T4, fHbp m002413
fHbp m001691 = target: T5, fHbp m001691
fHbp m002415 = target: T6, fHbp m002415
fHbp m002252 = target: T7, fHbp m002252
fHbp m002332 = target: T8, fHbp m002332
fHbp m002416 = target: T9, fHbp m002416

Binder | Kd (fHbp m001927) [nM] | Kd (fHbp m002420) [nM] | Kd (fHbp m002335) [nM] | Kd (fHbp m002413) | Kd (fHbp m001691) [nM] | Kd (fHbp m002415) [nM] | Kd (fHbp m002252) [nM] | Kd (fHbp m002332) [nM] | koff (fHbp m001927) [s⁻¹] | kon (fHbp m001927) [M⁻¹ s⁻¹] | koff (fHbp m002420) [s⁻¹] | kon (fHbp m002420) [M⁻¹ s⁻¹] | koff (fHbp m002335) [s⁻¹] | kon (fHbp m002335) [M⁻¹ s⁻¹] | koff (fHbp m002413) | kon (fHbp m002413) | koff (fHbp m001691) [s⁻¹] | kon (fHbp m001691) [M⁻¹ s⁻¹] | koff (fHbp m002415) [s⁻¹] | kon (fHbp m002415) [M⁻¹ s⁻¹] | also measured
chimeric antibody hJAR5 (antibody, V domains shown, also called hJAR5-2; humanized JAR5; source: Expi293, purified (MabSelect SuRe, SEC); copies: 2 + 2) VH: QVQMQQPGAELVKPGASVKLSCKASGYTFISYWMHWVKQRPGRGLEWIGRIAPDTGIIYYNEKFKNKATLTVDTPSSTAYMQLNSLTSEDSAVYYCARYLKYDGSTYRFDYWGQGTTLTVSS VL: DIVMTQAAPSVPVTPGESVSISCRSSKSLLHSNGNTYLFWFLQRPGQSPQLLIYRMSNLASGVPDRFSGSGSGTSFTLRISRVEAEDVGVYYCMQHLEYPYTFGGGTKLEIK | 0.824 | 0.256 | 0.883 | 1.09 nM | 0.838 | 0.664 | 5.07 | 0.662 | – | – | – | – | – | – | – | – | – | – | – | – | –
chimeric antibody h12C1 (antibody, V domains shown, also called humanized 12C1; source: Expi293, purified (MabSelect SuRe, SEC); copies: 2 + 2) VH: QVQLQESGPELVKPGASVKISCKASGYSFSDYNMSWVKQSNGKSLEWIGIIDPKYGTINYNQKFKGKATLTVDQASSTAYMQLNSLTSEDSAVYYCVRDYYGSSYFDYWGQGTTLTVSS VL: DIVLTQSPSSIYASLGERVTLTCKASQDIHNYLNWFQQKPGKSPKTLIYRANRLVDGVPSRFSGGGSGQDYSLTISSLEFEDIGIYYCLQYDEFPPTFGGGTRLEIK | 0.38 | 70.4 | 0.235 | 1.1 nM | 34 | 66.7 | 0.269 | 1.19 | 7.94e-05 | 209200 ± 1710 | 0.02143 ± 0.00013 | 304000 ± 6160 | 8.01e-05 | 340700 ± 1750 | 0.000237 s⁻¹ | 214700 ± 1140 M⁻¹ s⁻¹ | 0.00857 | 252000 ± 2680 | 0.00939 | 141000 ± 2240 | koff (fHbp m002416): 5.89e-05 s⁻¹; kon (fHbp m002416): 201100 ± 1150 M⁻¹ s⁻¹; koff (fHbp m002252): 4.04e-05 s⁻¹; kon (fHbp m002252): 150400 ± 1270 M⁻¹ s⁻¹; koff (fHbp m002332): 0.000253 s⁻¹; kon (fHbp m002332): 212700 ± 1530 M⁻¹ s⁻¹
mAb 1E6 (human) (antibody, V domains shown, source: Expi293, purified (MabSelect SuRe, SEC); copies: 2 + 2) VH: EVQLVQSGAEVKKPGSSVKVSCKASGGTVIDYPITWVRQAPGQGLEWVGGFVPLFRTSNYGQKFQGRVTITADKSTSTASMELNSLTSEDTAIYYCARGDTAMGPFDYWGQGTLVTVSS VL: SYVLTQPPSLSVAPGKTATLTCGGNNIAGKTVHWYQQRPGQAPVLVISYDSDRPSGIPERFSGSNSANTATLTISRVEAGDEADYYCQVWDRNSDHWVFGGGTKLTVL | 0.293 | 0.285 | 0.137 | 0.66 nM | 1.01 | 0.831 | 0.133 | 0.708 | 0.000118 | 402600 ± 1680 | 0.000154 | 542300 ± 2290 | 0.000102 | 744000 ± 3230 | 0.000271 s⁻¹ | 410700 ± 2050 M⁻¹ s⁻¹ | 0.000364 | 361600 ± 1550 | 0.000302 | 363300 ± 1200 | koff (fHbp m002416): 0.000104 s⁻¹; kon (fHbp m002416): 322000 ± 2420 M⁻¹ s⁻¹; koff (fHbp m002252): 4.06e-05 s⁻¹; kon (fHbp m002252): 304600 ± 2710 M⁻¹ s⁻¹; koff (fHbp m002332): 0.000264 s⁻¹; kon (fHbp m002332): 373200 ± 1990 M⁻¹ s⁻¹
mAb 4B3 (human) (antibody, V domains shown, also called 4B3-2; source: Expi293, purified (MabSelect SuRe, SEC); copies: 2 + 2) VH: QVQLVQSGGGLVKPGGSLRLSCAASGFPFSSYYMSWIRQAPGKGLEWVSDINNSGNVKEYADFVKGRLTISRDNVKNSMYLHMNSLRVEDTAVYYCARNRGRFDVWGQGTLVTVSA VL: EIVMTQSPGTLSLSPGETATLSCRASQMISSPFLAWYQQRRGQAPRLLIYGASTRATDTPDRFRGSGSGTDFILTISRLEPEDFAVYYCQYYDDSPFTFGQGTKLEIK | 3.64 | 2.01 | 5.08 | 4.57 nM and 3.74 nM | 3.1 | 3.78 | 1.27 | 4.04 | 0.000943 | 259300 ± 1550 | 0.000887 | 441000 ± 4480 | 0.00109 | 214100 ± 1500 | 0.00112 s⁻¹ and 0.00115 s⁻¹ | 245000 M⁻¹ s⁻¹ and 307000 M⁻¹ s⁻¹ | 0.000731 | 235300 ± 1280 | 0.00101 | 267700 ± 1540 | koff (fHbp m002416): 0.00113 s⁻¹; kon (fHbp m002416): 296100 ± 925 M⁻¹ s⁻¹; koff (fHbp m002252): 0.000415 s⁻¹; kon (fHbp m002252): 327400 ± 2090 M⁻¹ s⁻¹; koff (fHbp m002332): 0.00118 s⁻¹; kon (fHbp m002332): 291800 ± 1150 M⁻¹ s⁻¹
